B1: Hairpin Ribozyme (parent)
chain: GUCCUCUUUCACGUGCGCGUGAAAGAGAGAAGUGAACCAGAGAAACACACGUUGUGGUAUAUUACCUGGUA

Variants of: B1
Test: self-cleavage, relative activity (ratio to wild type); higher = more cleavage; co-transcriptional

| Variant | self-cleavage |
| --- | --- |
| U20C A47G | 0.159 |
| U20C A47C | 0.358 |
| U20G U52A | 1.09 |
| U20G U52C | 0.998 |
| G21A A45C | 0.16 |
| G21A A45G | 0.177 |
| U20A U67G | 0.256 |
| U20C G54U | 0.386 |
| U20C G54A | 0.544 |
| U20C G57U | 0.341 |
| U20C G57A | 0.167 |
| U20G G25A | 0.469 |
| U20G C37A | 0.186 |
| U20C G21C | 0.778 |
| U20G A43U | 0.189 |
| U20G A43C | 0.214 |
| U20G A43G | 0.206 |
| U20C G69U | 0.23 |
| U20G A47C | 0.299 |
| U20G A47G | 0.0572 |
| U20G C38G | 0.119 |
| G21A A24G | 0.576 |
| G21A A24C | 0.563 |
| U20A U58C | 0.847 |

| Variant | self-cleavage |
| --- | --- |
| U20G A41G | 0.687 |
| U20A U70A | 0.784 |
| U20A U70G | 0.651 |
| U20C A45C | 0.105 |
| U20G G57C | 0.123 |
| G21A C50G | 0.217 |
| U20C A44G | 0.204 |
| U20C A44U | 0.115 |
| U20C A31U | 0.188 |
| U20C A22C | 0.482 |
| U20C A36U | 0.529 |
| U20C A36C | 0.526 |
| U20G A36G | 0.569 |
| U20C G42U | 0.172 |
| U20C U33G | 0.0535 |
| U20C U33A | 0.0957 |
| U20G A59U | 0.123 |
| U20C G32A | 0.274 |
| U20G A49G | 0.364 |
| U20G A49C | 0.172 |
| U20C G29A | 0.181 |
| U20G G56U | 0.191 |
| U20G G56A | 0.0796 |
| U20C U63G | 0.169 |

| Variant | self-cleavage |
| --- | --- |
| U20C U63A | 0.116 |
| G21A A41G | 0.765 |
| G21A A41C | 0.761 |
| U20C C50A | 0.206 |
| U20G C65U | 0.374 |
| U20C A71G | 1.12 |
| U20C U52G | 1.12 |
| U20C U52A | 0.957 |
| U20C U52C | 1.03 |
| U20G C46A | 0.229 |
| U20G C46G | 0.219 |
| U20C A41C | 1.11 |
| G21A G29A | 0.166 |
| U20G U62A | 0.149 |
| U20G U62G | 0.323 |
| U20C U70C | 0.945 |
| U20C U70A | 1.08 |
| U20G U58G | 0.835 |
| U20G G51C | 0.572 |
| U20C G68A | 0.251 |
| U20G G69U | 0.22 |
| U20G G69C | 0.284 |
| U20G G69A | 0.421 |
| U20G A61U | 0.142 |

| Variant | self-cleavage |
| --- | --- |
| U20A U63G | 0.263 |
| U20A U63A | 0.261 |
| G21A G34C | 1.11 |
| G21A G57C | 0.193 |
| U20C U67A | 0.213 |
| G21A A39G | 0.306 |
| G21A A30U | 0.144 |
| G21A A30G | 0.238 |
| G21A G25A | 0.239 |
| G21A G25C | 0.358 |
| U20G C48U | 0.228 |
| G21A C48G | 0.192 |
| U20G U63A | 0.171 |
| U20G U63C | 0.255 |
| U20G U63G | 0.265 |
| G21A G56C | 0.2 |
| U20C G51A | 1.19 |
| U20C A24C | 0.612 |
| G21A A61C | 0.253 |
| U20C A59U | 0.157 |
| U20C A59G | 0.149 |
| U20G U67G | 0.157 |
| U20A U53G | 0.673 |
| U20A U53C | 0.682 |

| Variant | self-cleavage |
| --- | --- |
| U20C A30G | 0.112 |
| G21A A23C | 0.683 |
| G21A A23G | 0.707 |
| G21A A23U | 0.825 |
| U20G G29U | 0.101 |
| U20G G40A | 0.296 |
| U20G G40U | 0.206 |
| U20G U60G | 0.662 |
| U20G G27A | 0.31 |
| U20G A24G | 0.673 |
| U20G G21C | 0.75 |
| U20G G21A | 0.846 |
| U20G A28G | 1.01 |
| U20G A28C | 0.462 |
| G21A G27C | 0.195 |
| G21A G27A | 0.346 |
| U20C C48A | 0.221 |
| U20C A61U | 0.21 |
| U20C G27U | 0.181 |
| U20G A45C | 0.16 |
| U20C U53C | 0.998 |
| U20C U60G | 0.534 |
| G21A A35U | 0.653 |
| U20G C66U | 0.411 |

| Variant | self-cleavage |
| --- | --- |
| U20G G68A | 0.14 |
| U20C A26U | 0.692 |
| G21A C66A | 0.201 |
| U20C G34U | 1.32 |
| U20C G34A | 1.15 |
| G21A | 0.809 |
| U20G | 0.879 |
| U20C | 0.963 |
| U20C A49G | 0.524 |
| U20G A71C | 1.25 |
| U20G A26U | 0.683 |
| U20G U33C | 0.109 |
| U20G U53G | 0.702 |
| G21A A31G | 0.424 |
| G21A A31C | 0.133 |
| U20G A35G | 0.559 |
| U20G A35U | 0.581 |
| U20G U70G | 0.994 |
| U20C C37U | 0.756 |
| G21A A44G | 0.142 |
| G21A A44C | 0.116 |
| G21A A44U | 0.215 |
| G21A G51A | 1.04 |
| G21A G51C | 0.771 |

| Variant | self-cleavage |
| --- | --- |
| G21A G51U | 0.99 |
| U20G A39U | 0.311 |
| U20C G25C | 0.513 |
| U20C G25U | 0.576 |
| U20C A64G | 0.558 |
| U20C A64C | 0.151 |
| U20C G40C | 0.218 |
| U20C U58G | 0.785 |
| U20A U52C | 0.96 |
| G21A C46G | 0.254 |
| G21A C46U | 0.173 |
| U20C A43G | 0.105 |
| G21A G40A | 0.312 |
| G21A G40C | 0.169 |
| G21A A22U | 0.771 |
| G21A A22C | 0.581 |
| U20G A44C | 0.162 |
| U20G A44G | 0.143 |
| U20G A23C | 0.83 |
| U20A U60G | 0.592 |
| U20A U55C | 0.258 |
| U20A U55A | 0.252 |
| U20A U55G | 0.256 |

Source: the RNAGym collection of RNA variant scans (doi:10.7554/elife.80360)
